Measured values from patent publication US20120201781A1 (AbbVie / Abbott, published 2012).
Each block holds one binder with its values, some of them ahead of it.

Assays:
murine IL-1α [1] = molecular target: T1, murine IL-1α (mouse, UniProt P01582 115-270); experiment: affinity, method not named for this table (Biacore elsewhere)
T1 construct: also called mIL-1α; mouse IL-1α
T1 sequence (looked up): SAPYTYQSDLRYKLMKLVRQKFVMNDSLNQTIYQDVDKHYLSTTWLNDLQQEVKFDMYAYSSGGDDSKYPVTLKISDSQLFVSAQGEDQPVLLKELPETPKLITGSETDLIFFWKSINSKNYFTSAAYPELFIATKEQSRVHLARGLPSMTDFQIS

murine IL-1α [2] = molecular target: T1, murine IL-1α; experiment: cell-based or functional assay
recombinant human IL-1α [3] = molecular target: T2, recombinant human IL-1α (human, UniProt P01583 113-271); experiment: SPR (Biacore)
T2 construct: Purified recombinant protein bought from R&D Systems; also called hIL-1α; rhIL-1α
T2 sequence: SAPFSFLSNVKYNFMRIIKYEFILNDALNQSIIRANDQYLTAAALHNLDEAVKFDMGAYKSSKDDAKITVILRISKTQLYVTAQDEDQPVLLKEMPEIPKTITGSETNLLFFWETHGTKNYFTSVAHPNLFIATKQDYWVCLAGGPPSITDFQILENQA

recombinant human IL-1α [4] = molecular target: T2, recombinant human IL-1α; experiment: cell-based or functional assay
recombinant human IL-1α [5] = molecular target: T2, recombinant human IL-1α; experiment: cell-based or functional assay; remark: listed apart in the source
recombinant human IL-1α [6] = molecular target: T2, recombinant human IL-1α; experiment: SPR (Biacore), mAb captured via goat anti-mouse IgG
recombinant human IL-1β [7] = molecular target: T3, recombinant human IL-1β (human, UniProt P01584 117-269); experiment: SPR (Biacore 3000), binder captured via goat anti-human IgG Fc
T3 construct: Recombinant protein; also called hIL-1β; rhIL-1β
Experimental: (§1) Approximately, 5000 RU of goat anti-human IgG Fcγ fragment specific polyclonal antibody (Pierce Biotechnology Inc, Rockford, Ill.) diluted in 10 mM sodium acetate (pH 4.5) was directly immobilized across a CM5 research grade biosensor chip using a standard amine coupling kit according to manufacturer's instructions and procedures at […]. Unreacted moieties on the biosensor surface were blocked with ethanolamine. Modified carboxymethyl dextran surface in flowcell 2 and 4 was used as a reaction surface. Unmodified carboxymethyl dextran without goat anti-human IgG in flow cell 1 and 3 was used as the reference surface. For kinetic analysis, rate equations derived from the 1:1 Langmuir binding model were fitted simultaneously to association and dissociation phases of all ten injections (using global fit analysis) using the Bioevaluation 4.0.1 software. Purified DVD-Ig samples were diluted in HEPES-buffered saline for capture across goat anti-human IgG Fc specific reaction surfaces and injected over reaction matrices at a flow rate of […]. The association and dissociation rate constants, kon (M-1s-1) and koff (s-1) were determined under a continuous flow rate of 25 ml/minute. […] The equilibrium dissociation constant (M) of the reaction between DVD-Ig molecule and rhIL1α/β was then calculated from the kinetic rate constants by the following formula: KD=koff/kon. Aliquots of rhIL1α/β samples were also simultaneously injected over a blank reference and reaction CM surface to record and subtract any nonspecific binding background to eliminate the majority of the refractive index change and injection noise. Surfaces were regenerated with two subsequent […] injections of 10 mM Glycine (pH 1.5) at a flow rate of […]. The anti-Fc antibody immobilized surfaces were completely regenerated and retained their full capture capacity over twelve cycles. The apparent stoichiometry of the captured DVD-Ig-rhIL1α/β complex was calculated under saturating binding conditions (steady-state equilibrium) using the following formula: […]

recombinant human IL-1β [8] = molecular target: T3, recombinant human IL-1β; experiment: cell-based or functional assay
recombinant human IL-1β [9] = molecular target: T3, recombinant human IL-1β; experiment: SPR (Biacore 3000), saturating binding
Experimental: (§2) The association and dissociation rate constants, kon (M-1s-1) and koff (s-1) were determined under a continuous flow rate of 25 ml/minute. […] The equilibrium dissociation constant (M) of the reaction between DVD-Ig molecule and rhIL1α/β was then calculated from the kinetic rate constants by the following formula: KD=koff/kon. Aliquots of rhIL1α/β samples were also simultaneously injected over a blank reference and reaction CM surface to record and subtract any nonspecific binding background to eliminate the majority of the refractive index change and injection noise. Surfaces were regenerated with two subsequent […] injections of 10 mM Glycine (pH 1.5) at a flow rate of […]. The anti-Fc antibody immobilized surfaces were completely regenerated and retained their full capture capacity over twelve cycles. The apparent stoichiometry of the captured DVD-Ig-rhIL1α/β complex was calculated under saturating binding conditions (steady-state equilibrium) using the following formula: […]
(§3) The affinity of the two DVD-Ig binding proteins to hIL-1 as compared to the affinity of chimeric antibodies to hIL-1 was similar as indicated by the evaluation of the stoichiometry to IL-1. Both chimeric antibodies, being bivalent monospecific, bound to IL-1α and IL-1β on Biacore with a stoichiometry of 1.6 and 1.7, respectively. This is common for an IgG due to inter-molecular interference when antibodies are immobilized densely on the Biacore sense chip resulting in stoichiometry being in the range from 1.5 to 2.0.

murine IL-1β [10] = molecular target: T4, murine IL-1β (mouse, UniProt P10749 118-269); experiment: affinity, method not named for this table (Biacore elsewhere)
T4 construct: also called mIL-1β; mouse IL-1β
T4 sequence (looked up): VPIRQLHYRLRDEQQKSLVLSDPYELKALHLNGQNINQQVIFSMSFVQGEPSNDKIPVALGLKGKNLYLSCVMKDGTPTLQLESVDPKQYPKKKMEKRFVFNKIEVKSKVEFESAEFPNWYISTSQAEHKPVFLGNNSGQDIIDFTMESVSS

murine IL-1β [11] = molecular target: T4, murine IL-1β; experiment: cell-based or functional assay
recombinant human IL-1α [12] = molecular target: T2, recombinant human IL-1α; experiment: SPR (Biacore 3000), binder captured via goat anti-human IgG Fc
Experimental: as §1

recombinant human IL-1α [13] = molecular target: T2, recombinant human IL-1α; experiment: cell-based or functional assay; remark: listed apart in the source
recombinant human IL-1α [14] = molecular target: T2, recombinant human IL-1α; experiment: SPR (Biacore 3000), saturating binding
Experimental: as §2, §3

B1: mouse anti-mouse IL-1α monoclonal antibody 9H10 (antibody, V domains shown)
VH: QVILKESGPGILQPSQTLSLTCSFSGFSLSTYGTAVNWIRQPSGKGLEWLAQIGSDDRKLYNPFLKSRITLSEDTSNSQVFLKITSVDTEDSATYYCANGVMEYWGLGTSVTVSS
VL: SIVMTQTPKFLLVSAGDRVTITCKASQSVNHDVAWYQQMPGQSPKLLIYFASNRYTGVPDRFTGSGYGTDFTFTISTVQAEDLAVYFCQQDYSSPYTFGGGTKLEIKR
notes: Mouse mAb from IL-1αβ double KO mice; also called anti-IL-1α (9H10)
Kd (murine IL-1α [1]): 0.173 nM
IC50 (M), in vitro potency (murine IL-1α [2]): 2e-10 M

B3: chimeric 13F5.G5 antibody (antibody, V domains shown)
VH: QVQLQQSGAELVRPGSSVKISCKASGYAFSSYWMNWVKQRPGQGLEWIGQIYPGDGDTNYNGKFKGKATLTADKSSSTSYMQLSGLTSEDSAMYFCVRFPTGNDYYAMDYWGQGTSVTVSS
VL: NIVLTQSPASLAVSLGQRATISCRASESVDSYGNSYMHWYQQKPGQPPKLLIYLASNLESGVPARFSGSGSRTDFTLTIDPVEADDAATYYCQQNNEDPFTFGSGTKLEIKR
notes: Murine variable domains on human Cγ1 and human Cκ constant regions (13F5.G5-VH-Cγ1, 13F5.G5-VL-Cκ); also called 13F5.G5-Ch; 13F5.G5 chimeric Ab
Kd (recombinant human IL-1β [7]): 0.462 nM
koff (recombinant human IL-1β [7]): 0.000654 s⁻¹
kon (recombinant human IL-1β [7]): 1.41e+06 M⁻¹ s⁻¹
Potency (IC50) M, MRC-5 bioassay (recombinant human IL-1β [8]): 0.53 nM
Stoichiometry (recombinant human IL-1β [9]): 1.7

B4: mIL-1α/β DVD-Ig binding protein (bispecific antibody, mouse IgG2a, kappa)
heavy: EVQLQQSGPELVKPGTSVKMSCKTSGYTFTSYVMHWVKQKPGQGLEWIGYIIPYNDNTKYNEKFKGKATLTSDKSSSTAYMELSSLTSEDSAVYYCARRNEYYGSSFFDYWGQGTTLTVSSAKTTAPSVYPLAPQVILKESGPGILQPSQTLSLTCSFSGFSLSTYGTAVNWIRQPSGKGLEWLAQIGSDDRKLYNPFLKSRITLSEDTSNSQVFLKITSVDTEDSATYYCANGVMEYWGLGTSVTVSSAKTTAPSVYPLAPVCGDTTGSSVTLGCLVKGYFPEPVTLTWNSGSLSSGVHTFPAVLQSDLYTLSSSVTVTSSTWPSQSITCNVAHPASSTKVDKKIEPRGPTIKPCPPCKCPAPNLLGGPSVFIFPPKIKDVLMISLSPIVTCVVVDVSEDDPDVQISWFVNNVEVHTAQTQTHREDYNSTLRVVSALPIQHQDWMSGKEFKCKVNNKDLPAPIERTISKPKGSVRAPQVYVLPPPEEEMTKKQVTLTCMVTDFMPEDIYVEWTNNGKTELNYKNTEPVLDSDGSYFMYSKLRVEKKNWVERNSYSCSVVHEGLHNHHTTKSFSRTPGK
light: DIQMTQSPASLSASVGETVTITCRGSGILHNYLVWYQQKQGKSPQLLVYSAKILADGVPSRFSGSGSGTQYSLKINSLQPEDFGSYYCQHFWSTPFTFGSGTKLEIKRADAAPTVSIFPPSIVMTQTPKFLLVSAGDRVTITCKASQSVNHDVAWYQQMPGQSPKLLIYFASNRYTGVPDRFTGSGYGTDFTFTISTVQAEDLAVYFCQQDYSSPYTFGGGTKLEIKRADAAPTVSIFPPSSEQLTSGGASVVCFLNNFYPKDINVKWKIDGSERQNGVLNSWTDQDSKDSTYSMSSTLTLTKDEYERHNSYTCEATHKTSTSPIVKSFNRNEC
notes: V(anti-mIL-1β 10G11)-linker-V(anti-mIL-1α 9H10)-murine constant region (Cγ2a and Cκ); also called mDVD4-Ig; murine IL-1α/β DVD4-Ig
Kd (murine IL-1β [10]): 0.694 nM
Kd (murine IL-1α [1]): 0.766 nM
IC50 (M), in vitro potency (murine IL-1β [11]): 8e-10 M
IC50 (M), in vitro potency (murine IL-1α [2]): 2e-09 M

B5: chimeric 3D12.E3 antibody (antibody, V domains shown)
VH: QIQLVQSGPELKKPGETVKISCKASGYTFRNYGMNWVKQAPGKDLKRMAWINTYTGESTYADDFKGRFAFSLETSASTAYLQINNLKNEDTATYFCARGIYYYGSSYAMDYWGQGTSVTVSS
VL: NIQMTQTTSSLSASLGDRVTISCRASQDISNCLNWYQQKPDGTVKLLIYYTSRLHSGVPSRFSGSGSGTDYSLTISNLEQEDIATYFCQQGKTLPYAFGGGTKLEINR
notes: Murine variable domains on human Cγ1 and human Cκ constant regions (3D12.E3-VH-hCγ1, 3D12.E3-VL-hCκ); also called 3D12.E3-Ch; 3D12.E3 chimeric Ab
Kd (recombinant human IL-1α [12]): 1.34 nM
koff (recombinant human IL-1α [12]): 0.000552 s⁻¹
kon (recombinant human IL-1α [12]): 412000 M⁻¹ s⁻¹
Potency (IC50) M, MRC-5 bioassay (recombinant human IL-1α [13]): 0.7 nM
Stoichiometry (recombinant human IL-1α [14]): 1.6

The remaining lines, values ahead:

Kd (recombinant human IL-1α [3]): 0.354 nM
IC50 (M), MRC-5 bioassay (recombinant human IL-1α [4]): 2.4e-10 M
IC50 (M), MRC-5 bioassay (inhibition of IL-8 production) (recombinant human IL-1α [5]): 2.4e-10 M
Kd (recombinant human IL-1α [6]): 0.354 nM
B2: murine monoclonal antibody 6H3.1A4.3E11 (antibody, V domains shown)
VH: QVQLQQPGAELVRPGASVKLSCKASGYTFTTYWMNWVKQRPEQGLEWIGRIDPYDSETLYSQKFKDTAILTVDKSSSTAYMQLSSLTSEDSAVYYCARYGFDYWGQGTTLTVSS
VL: QIVLTQSPALMSASPGEKVTMTCSASSSVNYMYWYQQKPRSSPKPWIYLTSNLASGVPARFSGSGSGTSYSLTISSMEAEDAATYYCQQWNSNPYTFGGGTKLEMKR
notes: Murine hybridoma mAb, anti-hIL-1α

Kd (recombinant human IL-1α [3]): 0.595 nM
IC50 (M), MRC-5 bioassay (recombinant human IL-1α [4]): 3.3e-10 M
IC50 (M), MRC-5 bioassay (inhibition of IL-8 production) (recombinant human IL-1α [5]): 8.9e-11 M
Kd (recombinant human IL-1α [6]): 0.578 nM
B6: murine monoclonal antibody 18F4.2C8 (antibody, V domains shown)
VH: EVQLQQSGAELVKPGASVKLSCTASGLNIKDTYMHWLKQRPEQGLEWIGRIDPANGNAKYDPRFLGKATITADTSSNTAYLQLSSLTSEDTAVYYCARGDGNFHFDYWGQGTTLTVSS
VL: DIVMTQSQRFMSTSVGDRVSVTCKASQNVGTNIAWYQQKPGQSPRALIYSASYRYSGVPDRFTGSGSGTDFTLTISNVQSVDLAEYFCQQYTRYPLTFGGGTKLEIKR
notes: as for B2

Kd (murine IL-1β [10]): 0.23 nM
IC50 (M), in vitro potency (murine IL-1β [11]): 3.7e-10 M
B7: mouse anti-mouse IL-1β monoclonal antibody 10G11 (antibody, V domains shown)
VH: EVQLQQSGPELVKPGTSVKMSCKTSGYTFTSYVMHWVKQKPGQGLEWIGYIIPYNDNTKYNEKFKGKATLTSDKSSSTAYMELSSLTSEDSAVYYCARRNEYYGSSFFDYWGQGTTLTVSS
VL: DIQMTQSPASLSASVGETVTITCRGSGILHNYLVWYQQKQGKSPQLLVYSAKILADGVPSRFSGSGSGTQYSLKINSLQPEDFGSYYCQHFWSTPFTFGSGTKLEIKR
notes: Mouse mAb from IL-1αβ double KO mice; also called anti-IL-1β (10G11)
